Changes are numbered by the printed parent chain. Blank lines part the entries; values can stand above or below the binder they belong to.
Tests used:
mouse IL-25 = target: T1, mouse IL-25 (mouse, UniProt Q8VHH8 17-169, limits assumed); test: ELISA, plate coated with mouse IL-25, OD450, Example 7; unit from the axis lg(nM) [panel Mouse IL-25]
T1 construct: In-house production
T1 sequence (looked up): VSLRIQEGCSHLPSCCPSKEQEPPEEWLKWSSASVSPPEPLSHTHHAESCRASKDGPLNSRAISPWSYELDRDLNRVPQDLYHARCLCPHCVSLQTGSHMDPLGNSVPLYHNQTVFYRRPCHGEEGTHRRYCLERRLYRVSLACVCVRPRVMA

human IL-25 [1] = target: T2, human IL-25 (human, UniProt Q9H293 33-177); test: SPR, Biacore T200; antibody captured by anti-human Fc, IL-25 as analyte
T2 construct: ELISA used bought R&D systems #1258-IL-025/CF; Treated as one molecule; also called IL-17E; human IL-17E
T2 sequence (looked up): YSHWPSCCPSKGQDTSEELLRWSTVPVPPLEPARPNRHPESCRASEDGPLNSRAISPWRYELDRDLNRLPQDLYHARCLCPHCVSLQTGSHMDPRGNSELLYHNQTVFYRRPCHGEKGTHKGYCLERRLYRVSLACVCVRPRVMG
Method: Anti-human Fc gamma specific antibody (Jackson Immuno Research, Lot no. 124448, Code. 109-008-098) was immobilized onto the Biacore T200 sensor chip using amine coupling method. Four antibodies secreted to the culture medium plus the parental antibody were injected and captured by anti-human Fc antibody via Fc (capture phase) individually. After equilibration, IL-25 was injected for 300 seconds (association phase) followed by the injection of running buffer for 1200 s (dissociation phase). Responses of reference flow cell (flow cell 1) were subtracted from those of humanized antibodies flow cells during each cycle. The surface was regenerated before the injection of another humanized antibody. The process was repeated until all antibodies are analyzed. The off-rates of humanized antibodies were obtained from fitting the experimental data locally to 1:1 interaction model using the Biacore T200 evaluation software. The antibodies were ranked by their dissociation rate constants (off-rates, Kd). The binders that interact with IL-25 with similar affinity to parental antibody were selected (Table 1).

human IL-25 [2] = target: T2, human IL-25; test: ELISA, plate coated with 2 µg/ml human IL-17E (IL-25)
Method: (§1) MaxiSorp 96-well plates (NUNC #449824, www.thermofisher.com) were coated with 2 μg/ml human IL-17A (Cell Signaling #89285F, www.cellsignal.com), human IL-17F (Cell Signaling #8906LC, www.cellsignal.com), human IL-17B (Peprotech #200-28, www.peprotech.com), human IL-17C (R&D systems #1234-IL-025/CF, www.rndsystems.com), human IL-17D ((Peprotech #200-27, www.peprotech.com), human IL-17E (R&D systems #1258-IL-025/CF, www.rndsystems.com) in 1×PBS (50 μl/well) respectively. Plates were incubated at 4° C. overnight. Coating solution was removed and plates were washed once with 200 μl/well PBST (1×PBS with 0.05% tween-20). Then 200 μl/well blocking buffer (1×PBS with 0.05% tween-20, 3% BSA) was added and incubated at room temperature for 1 hour. Blocking buffer was removed and plates were washed three times with 200 μl/well PBST (1×PBS with 0.05% tween-20). The anti-IL-25 antibodies (produced in Example 2), were diluted to 10, 3.33, 1.11, 0.37, 0.123, 0.041, 0.0137, 0.0046, 0.0015, 0.00031, 0.000102, 0.000034 μg/ml by 1×PBS and added to the plates (50 μl/well). Plates were incubated at room temperature for 2 hours. Antibodies in the wells were removed and plates were washed three times with 200 μl/well PBST (1×PBS with 0.05% tween-20) each time. Goat anti-human IgG(H&L)-HRP secondary antibody (Jackson Immuno Research #109-035-088, www.jacksonimmuno.com) was diluted 1:5000 in 1×PBS and added to each well (50 μl/well). Plates were incubated at room temperature for 1 hour. Secondary antibody was removed and plates were washed seven times with 200 μl/well PBST (1×PBS with 0.05% tween-20) each time. 50 μl/well TMB (eBioscience #85-00-4201-56, www.ebioscience.com) was added and plates were incubated at room temperature for several minutes. Then 50 μl/well 2N H₂SO₄ was added to stop the reaction. Plates were read at 450 nm.

human IL-17D = target: T3, human IL-17D (human, UniProt Q8TAD2 18-202, limits assumed); test: ELISA, plate coated with 2 µg/ml cytokine
T3 sequence (looked up): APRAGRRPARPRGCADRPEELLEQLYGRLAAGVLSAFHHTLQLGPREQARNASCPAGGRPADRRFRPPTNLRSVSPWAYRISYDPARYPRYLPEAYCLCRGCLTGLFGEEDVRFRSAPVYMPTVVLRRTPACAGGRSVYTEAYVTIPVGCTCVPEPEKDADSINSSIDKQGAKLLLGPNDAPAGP
Method: as §1

human IL-17F = target: T4, human IL-17F (human, UniProt Q96PD4 31-163); test: ELISA, plate coated with 2 µg/ml cytokine
T4 sequence (looked up): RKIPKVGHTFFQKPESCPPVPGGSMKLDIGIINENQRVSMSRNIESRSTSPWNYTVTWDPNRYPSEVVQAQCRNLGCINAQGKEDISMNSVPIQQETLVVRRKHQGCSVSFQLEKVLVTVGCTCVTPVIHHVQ
Method: as §1

human IL-17A = target: T5, human IL-17A (human, UniProt Q16552 24-155, limits assumed); test: ELISA, plate coated with 2 µg/ml cytokine
T5 sequence (looked up): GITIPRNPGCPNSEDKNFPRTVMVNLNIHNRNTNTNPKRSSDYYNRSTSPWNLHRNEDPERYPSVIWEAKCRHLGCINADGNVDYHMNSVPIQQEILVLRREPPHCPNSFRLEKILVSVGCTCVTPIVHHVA
Method: as §1

human IL-17B = target: T6, human IL-17B (human, UniProt Q9UHF5 21-180); test: ELISA, plate coated with 2 µg/ml cytokine
T6 sequence (looked up): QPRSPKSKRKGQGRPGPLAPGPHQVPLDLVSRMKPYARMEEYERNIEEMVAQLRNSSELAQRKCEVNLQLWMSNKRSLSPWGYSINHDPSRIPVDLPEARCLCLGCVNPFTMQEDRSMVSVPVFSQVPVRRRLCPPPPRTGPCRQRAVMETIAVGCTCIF
Method: as §1

human IL-17C = target: T7, human IL-17C (human, UniProt Q9P0M4 19-197); test: ELISA, plate coated with 2 µg/ml cytokine
T7 sequence (looked up): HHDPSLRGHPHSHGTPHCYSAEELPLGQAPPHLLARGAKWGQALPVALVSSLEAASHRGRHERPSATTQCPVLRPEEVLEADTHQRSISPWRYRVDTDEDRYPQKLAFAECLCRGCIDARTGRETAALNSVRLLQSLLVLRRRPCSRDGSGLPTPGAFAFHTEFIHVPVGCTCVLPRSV
Method: as §1

B1: murine anti-IL-25 monoclonal antibody 18H3 (antibody, V domains shown)
VH: QVTLKESGPGILQPSQTLSLTCSFSGFSLSTSGMGLGWIRQPSGKGLEWLAHIWWDDVKHYKPALKSRLTISKDISSSQVFLTIASVDTADTATYYCARMGQLHYYGYDYAMDYWGQGTSVTVSS
VL: QIVLTQSPAIMSASPGEKVTISCSASSSVSYMYWYQQKPGSSPKPWIYRTSNLASGVPARFSGSGSGTSYSLTISSMEAEDAATYYCQLYHSYPPTWTFGGGTKLEIK
notes: also called parental antibody; parental murine mAb
EC50 (mouse IL-25): 0.329 nM
Kd (human IL-25 [1]): 0.34 nM
koff (human IL-25 [1]): 0.000267 s⁻¹
kon (human IL-25 [1]): 785000 M⁻¹ s⁻¹

B2: VH1-1 + VL2-1 (humanized anti-IL-25 antibody formed by VH1-1 and VL2-1) (antibody, V domains shown)
VH: QVTLKESGPTLVKPTQTLTLTCTFSGFSLSTSGMGLGWIRQPPGKALEWLAHIWWDDVKHYKPALKSRLTITKDTSKNQVVLTMTNVDPVDTATYYCARMGQLHYYGYDYAMDYWGQGTLVTVSS
VL: DIQLTQSPSFLSASVGDRVTITCSASSSVSYMYWYQQKPGKAPKPLIYRTSNLASGVPSRFSGSGSGTEYTLTISSMQPEDFATYYCQLYHSYPPTWTFGQGTKLEIK
EC50 (human IL-25 [2]): 0.15 nM
binding result (human IL-17D): no binding (tested: 10 µg/ml)
binding result (human IL-17F): no binding (tested: 10 µg/ml)
binding result (human IL-17A): no binding (tested: 10 µg/ml)
binding result (human IL-17B): no binding (tested: 10 µg/ml)
binding result (human IL-17C): no binding (tested: 10 µg/ml)
EC50 (mouse IL-25): 0.153 nM
Kd (human IL-25 [1]): 0.271 nM
koff (human IL-25 [1]): 0.000259 s⁻¹
kon (human IL-25 [1]): 957000 M⁻¹ s⁻¹

The remaining lines, values ahead:

EC50 (human IL-25 [2]): 0.196 nM
binding result (human IL-17D): no binding (tested: 10 µg/ml)
binding result (human IL-17F): no binding (tested: 10 µg/ml)
binding result (human IL-17A): no binding (tested: 10 µg/ml)
binding result (human IL-17B): no binding (tested: 10 µg/ml)
binding result (human IL-17C): no binding (tested: 10 µg/ml)
EC50 (mouse IL-25): 0.231 nM
Kd (human IL-25 [1]): 0.275 nM
koff (human IL-25 [1]): 0.000327 s⁻¹
kon (human IL-25 [1]): 1.19e+06 M⁻¹ s⁻¹
B3: VH2-1 + VL1-2 (humanized anti-IL-25 antibody formed by VH2-1 and VL1-2) (antibody, V domains shown)
VH: B2 VH with K5R, T10A, V12L, T72S, M84I
VL: EIVLTQSPATLSASPGERVTISCSASSSVSYMYWYQQKPGQAPRPLIYRTSNLASGVPARFSGSGSGTDYTLTISSMEPEDFATYYCQLYHSYPPTWTFGQGTKLEIK

EC50 (human IL-25 [2]): 0.187 nM
binding result (human IL-17D): no binding (tested: 10 µg/ml)
binding result (human IL-17F): no binding (tested: 10 µg/ml)
binding result (human IL-17A): no binding (tested: 10 µg/ml)
binding result (human IL-17B): no binding (tested: 10 µg/ml)
binding result (human IL-17C): no binding (tested: 10 µg/ml)
EC50 (mouse IL-25): 0.244 nM
Kd (human IL-25 [1]): 0.302 nM
koff (human IL-25 [1]): 0.000353 s⁻¹
kon (human IL-25 [1]): 1.17e+06 M⁻¹ s⁻¹
B4: VH2-1 + VL2-1 (humanized anti-IL-25 antibody formed by VH2-1 and VL2-1) (antibody, V domains shown)
VH: B2 VH with K5R, T10A, V12L, T72S, M84I
VL: B2 VL

EC50 (human IL-25 [2]): 0.25 nM
binding result (human IL-17D): no binding (tested: 10 µg/ml)
binding result (human IL-17F): no binding (tested: 10 µg/ml)
binding result (human IL-17A): no binding (tested: 10 µg/ml)
binding result (human IL-17B): no binding (tested: 10 µg/ml)
binding result (human IL-17C): no binding (tested: 10 µg/ml)
EC50 (mouse IL-25): 0.242 nM
Kd (human IL-25 [1]): 0.267 nM
koff (human IL-25 [1]): 0.000284 s⁻¹
kon (human IL-25 [1]): 1.06e+06 M⁻¹ s⁻¹
B5: VH1-1 + VL1-2 (humanized anti-IL-25 antibody formed by VH1-1 and VL1-2) (antibody, V domains shown)
VH: B2 VH
VL: B3 VL
notes: Captured by anti-human Fc gamma antibody in SPR

Source: US20210332123A1 (SUZHOU KANOVA BIOPHARMACEUTICAL, published 2021)
